This is an account of results in paper PMC11427689, “Antagonistic nanobodies implicate mechanism of GSDMD pore formation and potential therapeutic application” (Nature Communications, 2024).

Sequences and labels used below:
B1: VHH_(GSDMD-2) with C-terminal HA-His6 (VHH)
VHH: QVQLVESGGGLVQPGGSLRLSCVDSRSWINVYGANWYRQAPGKERELVAALTSGGTTNYADSVKGRFTISRDNAKNTVYLQMRDLKPEDTAVYYCNLERYTGSSVYPWGQGTQVTVSS
notes: pHEN6-based periplasmic expression vector, small scale (HA-His6); also called HA-His-tagged nanobody; source: E. coli WK6, periplasmic extract, purified (Ni-NTA, desalting); not shown: HA, C-terminal, kept; His6, C-terminal, kept
B2: VHH_(GSDMD-5) with C-terminal HA-His6 (VHH)
VHH: QVQLVETGGGLVQPGGSLRLSCAASGFVFSINPMNWYRQAPGKERELVAYISMRGSTTNYADSVKGRFIISRDNAKNTLYLQMNSLKPEDTAVYYCNAPSRSVWGQGTQVTVSS
notes: as for B1
B3: VHH_(GSDMD-4) with C-terminal HA-His6 (VHH)
VHH: QVQLVESGGGLVQPGGSLRLSCAASGFTLDRHAIAWFRQAPGLEREGVVCTSSSGAITNTADSVKGRFTISRDDAKNTVYLQMNSLKPEDTAIYYCAVRELWTVQPICEPRPRAYAYWGQGTQVTVSS
notes: as for B1
B4: VHH_(GSDMD-3) with C-terminal HA-His6 (VHH)
VHH: QVQLVETGGGLVQPGGSLRLSCAASGFTLDIYNMGWFRQAPGKEREGVSCISSRYGTSTYYADSVKGRFTISRDNAKNTVYLQMNNLKPEDTAVYYCATVSWRFTTNQDVCLTPSVSGYWGQGTQVTVSS
notes: as for B1
B5: VHH_(GSDMD-6) with C-terminal HA-His6 (VHH)
VHH: QVQLVETGGGLVQPGGSLRLSCTASGFIFSANQMNWVRQAPGKGLEWLSGISTRGDTTSYADSVKGRFTISRDNAKNTLYLQMNSLQPDDTAVYFCARVCIRGPEPKLRCDDWGQGTQVTVSS
notes: as for B1
B6: VHH_(GSDMD-1) with C-terminal HA-His6 (VHH)
VHH: QVQLVESGGALVQPGGSLRLSCSASGFTFSKYLMSWYRQAPGKERELVATITTAGGNTNYADSVKGRFTISRDNAKNTVYLQMNSLKPEDTAVYYCKASGGTIRTVNETYWGQGTQVTVSS
notes: as for B1
B7: VHH_(GSDMD-2) with a C-terminal HA tag, expressed in THP-1 cells (VHH)
VHH: B1 VHH
notes: Same nanobody as m3 and m12, other vector and host; also called VHH_(GSDMD-2)-HA; source: THP-1, lentiviral transduction, constitutive expression (pEF1α), in lysate; not shown: HA, C-terminal, kept
B8: VHH_(GSDMD-1) with a C-terminal HA tag, expressed in THP-1 cells (VHH)
VHH: B6 VHH
notes: Same nanobody as m2 and m11, other vector and host; also called VHH_(GSDMD-1)-HA; source: THP-1, lentiviral transduction, constitutive expression (pEF1α), in lysate; not shown: HA, C-terminal, kept
B9: VHH_(GSDMD-2)-HA (VHH)
VHH: B1 VHH
notes: also called VHH-HA; source: HEK293T, transfected (pCAGGS VHH-HA), in lysate; not shown: HA, C-terminal, kept
B10: VHH_(GSDMD-5)-HA (VHH)
VHH: B2 VHH
notes: as for B9
B11: VHH_(GSDMD-3)-HA (VHH)
VHH: B4 VHH
notes: as for B9
B12: VHH_(GSDMD-1)-HA (VHH)
VHH: B6 VHH
notes: as for B9

T3 sequence (P57764 whole entry, the tested form may be a part): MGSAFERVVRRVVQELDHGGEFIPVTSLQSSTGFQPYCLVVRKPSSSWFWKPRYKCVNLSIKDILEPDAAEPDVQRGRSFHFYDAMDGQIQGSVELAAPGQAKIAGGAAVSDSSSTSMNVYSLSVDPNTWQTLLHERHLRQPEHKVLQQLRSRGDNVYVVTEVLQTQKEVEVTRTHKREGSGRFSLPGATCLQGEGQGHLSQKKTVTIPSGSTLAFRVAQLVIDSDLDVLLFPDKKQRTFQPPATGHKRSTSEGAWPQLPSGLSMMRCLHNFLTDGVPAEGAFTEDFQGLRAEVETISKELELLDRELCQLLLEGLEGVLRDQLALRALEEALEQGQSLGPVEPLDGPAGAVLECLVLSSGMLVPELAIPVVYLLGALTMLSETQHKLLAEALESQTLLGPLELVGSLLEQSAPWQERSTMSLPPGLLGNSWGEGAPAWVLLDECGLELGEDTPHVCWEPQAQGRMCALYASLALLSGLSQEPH
T2 sequence (P57764 whole entry, looked up, the tested form may be a part): as the sequence (P57764 whole entry, the tested form may be a part) above

The target in one assay is T1, His-SUMO-GSDMD (Homo sapiens, UniProt P57764).
T1 construct: human gasdermin D (GSDMD), expressed from pET28 as His-SUMO-GSDMD; the recombinant protein is called full-length in the results; it was cleavable with the SUMO protease ULP1; also called gasdermin D; source: E. coli LOBSTR, purified (Ni-NTA, gel filtration); not shown: SUMO, N-terminal, kept
T1 sequence (P57764 whole entry): as the sequence (P57764 whole entry, the tested form may be a part) above
As to the kind of experiment: ELISA; SUMO-GSDMD or SUMO in PBS immobilised on ELISA plates at 1 μg/mL overnight; HA-tagged nanobodies in 10% FBS/PBS, 10-fold dilution series from 100 nM to 1 pM; detected with anti-HA HRP and TMB. The following applies: both partners purified. In general terms: An ELISA detects its analyte on a solid surface through an enzyme-linked reagent.
Regarding B1, the binding result is listed as “binds”.
On to B2, for which the binding result is “binds”.
On the same count and under the same terms, the result for B3 reads “binds”; that for B4, “binds”.
The same measure, in the same setting: as for B5, the entry is “binds”; as for B6, “binds”.

A further assay addresses T2, GSDMD^NT (N-terminal domain of gasdermin D released by caspase cleavage) (Homo sapiens (endogenous, THP-1), UniProt P57764).
T2 construct: also called processed GSDMD^NT; source: endogenous, lysate of PMA-differentiated THP-1 macrophages stimulated with MxiH
As to the kind of experiment: non-reducing SDS-PAGE and immunoblot; PMA-differentiated THP-1 macrophages expressing HA-tagged nanobodies, stimulated with MxiH for 1 h; lysates in SDS-PAGE buffer without reducing agent; immunoblot with anti-GSDMD. The following applies: partners not purified. (In general: Immunoblotting shows a protein as a band on a membrane.)
As to B7, the binding result is “binds”.
Same read-out and setting: as for B8, the entry is “binds”.

Another assay has as its target T3, human GSDMD-Renilla luciferase fusion (Homo sapiens, UniProt P57764).
T3 construct: human gasdermin D (GSDMD) fused to Renilla luciferase; A GSDMD 4 A fusion was tested as well; also called Renilla-fused bait protein human GSDMD; source: HEK293T, transfected (pcDNA3.1-based vector), in lysate
As to the kind of experiment: co-IP; LUMIER assay: HEK293T co-transfected with VHH-HA and Renilla luciferase fusions; lysis in 50 mM Hepes-KOH pH 7.9, 150 mM NaCl, 2 mM EDTA, 0.5% Triton X-100, 5% glycerol; VHH-HA captured on anti-HA-coated plates for one hour; luminescence of co-purified Renilla luciferase normalised to lysate. Particulars: partners not purified.
For B9, the binding result is listed as “binds”.
Same read-out and setting: the result for B10 reads “binds”; that for B11, “binds”; that for B12, “binds”.
